These results are taken from US11634470B2, “Integrin binding peptides and uses thereof” (Universiteit Twente, priority 2015, dated 2023).

For test [1], the system named is human skin fibroblasts BJhtert. The experiment in a line: Scratch (wound) migration of human skin fibroblasts. Particulars: after 24 hours. It is filed as cell-based. On the procedure:
FIG. 15: Effect of peptides on migration of human fibroblasts. Human skin fibroblasts BJhtert were grown to full confluency and a scratch (wound) was made and effects of peptides were determined on the wound closure (migration of fibroblasts) after 24 hours. […] (1. SEQ ID NO:8, 2. SEQ ID NO: 11, 3. SEQ ID NO:62, 4. SEQ ID NO:63, 5. SEQ ID NO: 64, 6. SEQ ID NO:76, and 7. SEQ ID NO:68.)

Test [2] has as its target T1, α5β1 (Homo sapiens, UniProt P08648). The experiment in a line: Peptide binding study on the coated receptor. The conditions noted are these: for binding to the coated α5β1 receptor: PEG(6)-Fluorescein labeled peptide. The protocol: The purified human recombinant α5β1 or α11β1 receptors (5 μg/ml in PBS) were coated onto 96-well ELISA plates (White Maxisorb-Nunc) by incubating overnight at 4° C. Then, the wells were blocked with blocking buffer (5% (w/v) BSA, 150 mM Nacl, 25 mM Tris) for 2 hours at room temperature. Then, the wells were washed three times with 200 μl of washing buffer (150 mM Nacl, 25 mM Tris-base, 0.005% TWEEN® 20, 0.5% BSA). Thereafter, the peptides conjugated with PEG(6)-FITC were diluted to different concentrations in washing buffer. For the competitive studies, the wells were co-incubated with 10-fold higher amount of unlabeled peptides. The plates were incubated at 37° C. for 60 minutes. Then, the wells were washed three times with washing buffer and subsequently, the plates were read for the fluorescein signal Ex/Em 485 nm/520 nm using a fluorescent plate reader (Perkin Elmer).

Test [3] deals with T2, ITGA11 receptor (α11β1) (Homo sapiens, UniProt Q9UKX5).
T2 construct: purchased R&D systems
T2 sequence (Q9UKX5 23-1141 limits assumed): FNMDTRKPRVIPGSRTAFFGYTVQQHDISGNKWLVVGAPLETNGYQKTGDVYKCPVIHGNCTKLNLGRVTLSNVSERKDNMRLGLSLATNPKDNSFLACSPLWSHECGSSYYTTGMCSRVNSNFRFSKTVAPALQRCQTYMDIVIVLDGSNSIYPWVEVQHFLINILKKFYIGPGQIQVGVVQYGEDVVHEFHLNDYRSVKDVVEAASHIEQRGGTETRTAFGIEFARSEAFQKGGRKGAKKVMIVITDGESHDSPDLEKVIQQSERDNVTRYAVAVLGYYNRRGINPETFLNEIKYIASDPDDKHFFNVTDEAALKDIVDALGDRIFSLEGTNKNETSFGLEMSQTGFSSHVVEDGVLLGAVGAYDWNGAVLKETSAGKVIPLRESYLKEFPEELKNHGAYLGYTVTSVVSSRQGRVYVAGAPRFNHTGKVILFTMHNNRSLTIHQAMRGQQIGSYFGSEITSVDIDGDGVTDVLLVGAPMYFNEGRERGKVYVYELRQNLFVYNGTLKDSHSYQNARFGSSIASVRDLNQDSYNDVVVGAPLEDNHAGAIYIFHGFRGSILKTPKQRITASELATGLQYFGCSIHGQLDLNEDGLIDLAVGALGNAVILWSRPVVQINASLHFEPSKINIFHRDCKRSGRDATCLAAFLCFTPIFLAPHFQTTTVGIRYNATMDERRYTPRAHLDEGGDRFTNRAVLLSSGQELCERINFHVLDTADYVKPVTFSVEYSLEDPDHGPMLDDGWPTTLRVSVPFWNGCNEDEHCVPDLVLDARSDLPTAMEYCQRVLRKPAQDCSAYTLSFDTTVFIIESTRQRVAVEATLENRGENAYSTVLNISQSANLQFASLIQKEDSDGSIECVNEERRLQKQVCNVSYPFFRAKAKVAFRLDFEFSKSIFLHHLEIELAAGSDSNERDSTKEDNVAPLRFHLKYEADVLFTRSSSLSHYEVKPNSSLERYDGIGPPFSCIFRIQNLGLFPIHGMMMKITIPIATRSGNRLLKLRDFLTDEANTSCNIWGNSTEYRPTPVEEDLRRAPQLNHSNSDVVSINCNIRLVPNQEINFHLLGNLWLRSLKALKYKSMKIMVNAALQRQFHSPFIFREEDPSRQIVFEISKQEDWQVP
T2 sequence (P05556 21-728 partner limits assumed): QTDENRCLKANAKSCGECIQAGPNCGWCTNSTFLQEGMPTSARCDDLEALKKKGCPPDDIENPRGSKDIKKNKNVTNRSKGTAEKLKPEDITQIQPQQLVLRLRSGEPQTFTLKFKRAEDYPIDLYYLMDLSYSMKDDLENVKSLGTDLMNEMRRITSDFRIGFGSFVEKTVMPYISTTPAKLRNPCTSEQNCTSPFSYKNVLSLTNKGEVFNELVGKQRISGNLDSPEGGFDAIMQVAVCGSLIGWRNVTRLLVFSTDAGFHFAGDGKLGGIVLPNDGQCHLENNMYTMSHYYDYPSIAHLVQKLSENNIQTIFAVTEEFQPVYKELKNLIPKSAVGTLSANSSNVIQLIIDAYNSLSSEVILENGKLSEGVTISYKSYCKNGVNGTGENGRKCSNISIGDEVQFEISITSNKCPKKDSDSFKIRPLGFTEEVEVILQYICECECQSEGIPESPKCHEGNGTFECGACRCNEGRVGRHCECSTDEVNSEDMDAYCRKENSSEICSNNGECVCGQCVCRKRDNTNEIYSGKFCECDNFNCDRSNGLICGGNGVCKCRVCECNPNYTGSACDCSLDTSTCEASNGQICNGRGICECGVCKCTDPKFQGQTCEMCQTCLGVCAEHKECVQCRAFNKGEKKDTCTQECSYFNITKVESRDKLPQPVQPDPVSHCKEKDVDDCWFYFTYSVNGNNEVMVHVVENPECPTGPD
The experiment in a line: Binding of FITC-labeled peptides to coated ITGA11 receptor. The conditions noted are these: FITC-labeled peptide, 37° C. 1 hour. The protocol:
(§1) Purified ITGA11 receptor (α11β1; 100 μg/ml—stock; R&D systems) was diluted to 5 μg/ml with 1×PBS. 96-well ELISA White Maxisorb plate (Nunc) was coated with 50 μl of 5 μg/ml ITGA11 (or as control α5β1) receptor for overnight at 4° C. Then, wells were blocked for 3-4 hours with 200 μl of blocking buffer (1×PBS containing 5% BSA). Wells were washed three times with 200 μl of washing buffer (1×PBS containing 0.5% BSA and 0.05% TWEEN®-20). Peptides conjugated with FITC were diluted to different concentrations in washing buffer and then added to the plate and incubated at 37° C. for 1 hour. In addition, the binding of the peptide was blocked by co-incubation with 10× higher amount of unlabeled peptide. Subsequently, wells were washed three times with washing buffer. Then, 100 μl of 1×PBS was added and plates were read at 485 nm/520 nm with a fluorescence plate reader.

Test [4] deals with T1, α5β1. Kind of test: Binding of FITC-labeled peptide to coated control receptor α5β1. Particulars: similar to empty wells. On the procedure:
as §1

For test [5], the system named is primary human pancreatic stellate cells. Kind of test: AXI-I-PEG-FITC binding assay, flow cytometry. The arrangement: unit not given here. It is filed as cell-based. The conditions noted are these: suspended PSCs, 1 hour at 4° C. On the procedure: PSCs were trypsinized using trypsin-EDTA solution and cell numbers were diluted to 4×10^4 cells/ml. Cells were incubated at 37° C. for 30 minutes to allow receptor recovery. Then different concentrations of AXI-I-FITC was added to the cells containing 2% FBS and incubated at 4° C. for 60 minutes. Thereafter, cells were centrifuged at 1500 rpm at 4° C. for 10 minutes. Supernatant was removed and cells were washed 3 times with PBS and then were fixed with 0.5% formaldehyde for 1 hour at 4° C. and measured with flow cytometry for fluorescence.
In general terms: Flow cytometry measures light scatter and fluorescence of single cells or particles in a stream.

Test [6] addresses T1, α5β1. The experiment in a line: ITGA5 peptide selection, overlapping fibronectin peptides displayed on membrane. It is filed as binding. Also noted: purchased R&D systems. The conditions noted are these: peptides attached by C-terminal on membrane, 5 μg/ml α5β1. The protocol: Peptides were attached to their c-terminal site using stable linker. […] The peptide-displaying […] membrane was soaked in methanol for 1 minute and rinsed in Tris-buffered saline (TBS) and washed 3 times. Then, the membrane was blocked with 3% BSA in 0.05% TWEEN®-20 containing TBS (TBST) for 3 hours at room temperature. Then, the membrane was washed for 10 minutes with TBST and incubated with 5 μg/ml α5β1 human recombinant protein (R&D systems) in 3% BSA in TBST for 1 hour at room temperature and then overnight at 4° C. Subsequently, the membrane was washed 3 times with TBST. Thereafter, the bound receptor to the membrane was transferred to the PVDF membrane. To achieve this, first, the PVDF membrane was soaked in methanol for 1 minute and then blocked with 5% skimmed fat milk for 2 hours. Then, the membrane was incubated with primary anti-alpha5 integrin antibody (Sigma-Aldrich) for overnight in 5% skimmed milk. The membrane was washed 3 times with TBST and then incubated with anti-rabbit-HRP secondary antibody (Dako), washed and developed with chemiluminescence detection kit.

The subject of test [7] is LX2 hepatic stellate cells. Kind of test: Cell binding experiment, fluorescence microscopy. Particulars: FITC-labeled peptides 20 μM, 2 hours, room temperature. It is filed as cell-based, human. The protocol: Human hepatic stellate cells (LX2, 15,000 cells/well) were cultured overnight in permanox Lab-Tek 8-well chamber slides (Nunc). After overnight incubation, cells were washed 3× with 0.5% BSA containing medium and then FITC-labeled peptides (20 μM) was added and incubated at room temperature for 2 hours with intermittent shaking. The cells were then washed 3× with 0.5% BSA containing medium and 2×PBS. Thereafter, cells were fixed with 4% paraformaldehyde (prepared in 1×PBS) for 20 minutes followed by 3 times washing with 1×PBS. Cells were then mounted with mounting medium with DAPI (vector labs) and visualized under the fluorescence microscope (Nikon E600). For phalloidin staining, cells after fixation were incubated with TRITC-conjugated Phalloidin (1:1000 prepared in 1×PBS containing 0.1% TRITON-X® 100) for 10 minutes. Then, cells were washed thrice with PBS and mounted with DAPI-containing mounting medium.

Test [8] relates to human primary pancreatic stellate cells (PSCs). Kind of test: TGF-β1 activation of pancreatic stellate cells. It is filed as cell-based. The conditions noted are these: TGFβ1-activated PSCs, immunostaining, 20 μM. On the procedure:
Human primary pancreatic stellate cells (PSCs) were obtained from ScienCell (Carlsbad, Calif.) and were cultured in specified medium provided by the manufacturer, supplemented with penicillin/streptomycin. Cells were used less than the passage 9 and seeded on a Poly-L-Lysine-coated plate.
PSCs were seeded into a 12-well plate (6×10^4 cells/well, for gene expression) or 24-well plate (for staining) in complete medium. After 24 hours, cells were starved in serum-free medium and then after 24 hours, they were added with TGF-β1 (5 ng/ml) with/without the peptide.
After 24 hours of incubation, cells were lysed with the lysis buffer and total RNA was isolated using the GenElute™ Mammalian Total RNA Miniprep Kit. The RNA amount was measured by a NanoDrop® ND-1000 Spectrophotometer (Wilmington, Del.). Subsequently, cDNA was synthesized with iScript™ cDNA Synthesis Kit (BioRad, Veenendaal, The Netherlands). 10 ng cDNA was used for each PCR reaction. The real-time qPCR primers for human αSMA and RPS18 were purchased from Sigma (The Netherlands). Gene expression levels were normalized to the expression of the house-keeping gene RPS18s.
For immunostaining, the cells were washed and fixed with acetone-methanol and processed for immunocytochemical staining.
For immunocytostaining, cells were fixed with acetone-methanol (1:1) at −20° C. for 30 minutes and then dried and rehydrated for 10 minutes. […]

Test [9] concerns the target α11β1 receptor (Homo sapiens, UniProt Q9UKX5). Kind of test: Peptide microarray binding, alanine scanning and chain length scan of AXI-I. The conditions noted are these: receptor 10 μg/ml. The protocol: Peptide microarray was prepared by conjugating peptides at their N-terminal to a glass slide using a PEG linker. […] For the binding studies, the peptide array was blocked with 3% BSA in TBST for 2 hours. Then the array slide was washed 5 times in TBST and subsequently incubated with the target receptor (α11β1, 10 μg/ml dissolved in PBS) for 1 hour at 37° C. The slides were washed with TBST and then incubated with primary antibody (1 μg/ml) against ITGA11 for 1 hour at 37° C. Then slides were washed and incubated with fluorescent dye labeled secondary antibodies for 30 minutes. The slides were washed with TBST and water and then dried and scanned with a microarray scanner to detect binding of the peptides. The enlightened spots were analyzed using ImageJ software. To determine the unspecific binding, a peptide array was incubated with only primary and secondary antibodies without the receptor incubation step. Then, the signal of unspecific binding was subtracted from the total binding to calculate specific binding.

Primed or numbered codes have the meaning given here. Where no end group is shown, it is not given here. PEG(6) = PEG(6) linker

T1 sequence (P08648 42-894 limits assumed): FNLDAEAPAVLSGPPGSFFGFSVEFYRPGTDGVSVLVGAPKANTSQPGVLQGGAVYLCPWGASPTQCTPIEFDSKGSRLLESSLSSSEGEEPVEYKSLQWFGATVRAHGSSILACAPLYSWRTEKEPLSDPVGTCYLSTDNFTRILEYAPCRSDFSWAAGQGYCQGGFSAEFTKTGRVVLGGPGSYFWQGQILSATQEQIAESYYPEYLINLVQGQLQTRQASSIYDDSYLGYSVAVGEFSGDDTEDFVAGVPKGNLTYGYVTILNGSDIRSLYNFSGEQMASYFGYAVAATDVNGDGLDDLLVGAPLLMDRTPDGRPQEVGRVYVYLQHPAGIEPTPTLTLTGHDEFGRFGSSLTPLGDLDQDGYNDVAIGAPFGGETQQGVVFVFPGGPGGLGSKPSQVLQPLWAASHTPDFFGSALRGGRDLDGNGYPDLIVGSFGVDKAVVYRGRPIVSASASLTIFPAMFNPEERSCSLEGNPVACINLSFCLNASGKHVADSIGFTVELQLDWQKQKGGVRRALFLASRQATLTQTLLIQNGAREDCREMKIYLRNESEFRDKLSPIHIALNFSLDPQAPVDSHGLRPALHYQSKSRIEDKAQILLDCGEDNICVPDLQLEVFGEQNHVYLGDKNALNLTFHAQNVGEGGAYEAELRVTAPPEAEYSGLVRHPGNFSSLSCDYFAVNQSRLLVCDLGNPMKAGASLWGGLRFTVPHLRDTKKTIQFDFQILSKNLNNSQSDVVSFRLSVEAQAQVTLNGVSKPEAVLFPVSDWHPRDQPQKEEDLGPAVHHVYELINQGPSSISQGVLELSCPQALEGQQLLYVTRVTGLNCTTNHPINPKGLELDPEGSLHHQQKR
T1 sequence (P08648 895-995 limits assumed): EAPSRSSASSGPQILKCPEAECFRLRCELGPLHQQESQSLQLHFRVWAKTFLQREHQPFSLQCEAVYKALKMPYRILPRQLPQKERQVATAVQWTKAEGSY
T1 sequence (P05556 21-728 partner limits assumed): as the sequence (P05556 21-728 partner limits assumed) above
Sequence of α11β1 receptor (Q9UKX5 23-1141 limits assumed): as the sequence (Q9UKX5 23-1141 limits assumed) above
Sequence of α11β1 receptor (P05556 21-728 partner limits assumed): as the sequence (P05556 21-728 partner limits assumed) above

In the case of “AV3.3: AV3 variant of FIG. 15 Panel B; possibly third listed peptide, SEQ ID NO:62 (RAYRITY; ITGA5 binding peptide)”, in [1], the reduction on migration entry is recorded as “about 30%”.

For “YYRITYGETGGN: YYRITYGETGGN with PEG(6)-Fluorescein introduced at the N-terminal side of the peptide (not fully specified (N-terminus))”, the “binding to the coated α5β1 receptor” value in test [2] is given as “no binding was observed”.

With “AXI-I-FITC: AXI-I peptide labeled with PEG(6)-FITC (SGLTEWLRWFNS; also: labeled with PEG(6)-FITC, site not given here)”, the “binding to coated ITGA11 (α11β1) receptor” value in [3] is reported as “bound to the ITGA11 receptor specifically”. In addition, the “binding to irrelevant receptor α5β1” value in test [4] is reported as “very low binding”. In test [5], the “concentration at which binding reached plateau” value came to 20.

As to “YYRITYGETGGN (ITGA5 binding peptide) [nAV2]”, the “binding to the coated α5β1 receptor” value in test [2] is on record as “good binding”. Moreover, the “blocking of nAV2-PEG-fluorescein binding to coated α5β1 by excess unlabeled peptide” value in test [2] (excess (10-fold) of unlabeled peptide) is given as “blocked”. Further, the “binding to the α5β1 receptor (signal strength)” value (“binding to the α5β1 receptor” for short) in test [6] was “YYRITYGETGGN-very strong”.

As for “YYRITYGETGGN (SEQ ID NO:56)-K-PEG(6)-Fluorescein (YYRITYGETGGNK-{PEG(6)-Fluorescein}) [nAV2-FITC]”, the “binding to LX2 hepatic stellate cells” value in test [7] was “clearly bound to these cells”.

In the case of VALNGREESPLL [Seq 2], the “binding to the α5β1 receptor” value in [6] is listed as “VALNGREESPLL-very weak”.

Take “TTVRYYRITYGE (integrin binding peptide) [Seq 3]”: the “binding to the α5β1 receptor” value in test [6] is “TTVRYYRITYGE-strong”.

“RYYRITYC (integrin binding peptide) [AV3-cys]”: in test [8], the “expression of fibrotic markers α-SMA, Col-1a1 and vimentin” value was “clearly inhibited the expression of these biomarkers”. Besides, in test [1], the “migration of fibroblasts (wound closure)” value is given as “significantly inhibited the migration of fibroblasts”.

As to ITANSFTVHWIA [Seq 1], in test [6], the “binding to the α5β1 receptor” value is “ITANSFTVHWIA-weak”.

Turning to LTEWLRWF (ITGA11 binding peptide), the “binding to the α11β1 receptor on peptide microarray” value in test [9] was “strongest binding”.

For the substance SIELTNLLVRYS [Seq 6], the “binding to the α5β1 receptor” value in test [6] is listed as “SIELTNLLVRYS-moderate”.

For GDSPASSKPISI [Seq 5], the “binding to the α5β1 receptor” value in test [6] is recorded as “GDSPASSKPISI-moderate”.

On to “SFATWTPNFERN (integrin binding peptide) [AXI-II]”, for which, in test [7], the “binding to LX2 hepatic stellate cells” value is “bound to the stellate cells”.

As for TNLLVRYSPVKN [Seq 7], the “binding to the α5β1 receptor” value in [6] is “TNLLVRYSPVKN-moderate”.
